Data as given in PMC4338028, “Studies of a Murine Monoclonal Antibody Directed against DARC: Reappraisal of Its Specificity” (PLoS ONE, 2015).
Square brackets hold non-standard residues; d marks the D form. Ends that are not written are not given here. sY = N[C@@H](Cc1ccc(OS(=O)(=O)O)cc1)C(=O)O

Tests used:
[1] = target: murine anti-Fy6 monoclonal antibody 2C3 (clone name NaM185-2C3) (mouse); assay: SPR; competition: 2C3 MAb (culture supernatant diluted 40 times) incubated 1 h at room temperature with the synthetic peptides, then injected over 2000 RU of immobilised WT ECD1-nuc (nuclease in the reference cell); RU read at 90 sec; Biacore X100, CM5, HBS-EP; the pair peptide and MAb
[2] = target: T1, Duffy Antigen Receptor for Chemokines (DARC), full-length consensus, expressed in K562 cells (human) (UniProt Q16570); assay: SPR; DARC purified from K562 cells immobilised at ca. 400 RU, reference cell only activated and deactivated; 2C3 Fab as analyte; measured before and after deglycosylation on the chip with N-glycosidase; Biacore X100
T1 sequence (chain, N-linked oligosaccharide chains (as made in K562 cells)): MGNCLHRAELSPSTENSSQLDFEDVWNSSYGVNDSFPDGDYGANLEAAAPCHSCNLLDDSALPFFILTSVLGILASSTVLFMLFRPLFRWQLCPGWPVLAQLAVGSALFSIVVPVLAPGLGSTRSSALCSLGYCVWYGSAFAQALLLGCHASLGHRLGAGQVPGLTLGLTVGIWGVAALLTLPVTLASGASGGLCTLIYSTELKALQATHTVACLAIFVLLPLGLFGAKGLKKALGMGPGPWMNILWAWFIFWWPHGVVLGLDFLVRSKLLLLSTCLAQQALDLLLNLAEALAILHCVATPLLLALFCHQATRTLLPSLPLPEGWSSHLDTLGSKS

[3] = target: T2, DARC from K562 cells after deglycosylation (Homo sapiens, UniProt Q16570, oligosaccharides removed by PNG-ase F on the chip); assay: as above; conditions: both partners purified
T2 construct: Duffy Antigen Receptor for Chemokines (DARC, Atypical Chemokine Receptor 1), full length; m15 after treatment on the chip; also called deglycosylated DARC; source: K562 cells expressing DARC, purified on an immobilised anti-DARC nanobody; deglycosylated with N-glycosidase (PNG-ase F) on the sensor chip

[4] = target: ECD1-nuc after phosphorylation by Src kinase (phosphate on Tyr-30) (human); assay: SPR; ECD1-nuc (Tyr-54 of nuclease removed) immobilised as ligand, nuclease in the reference cell; 2C3 Fab as analyte; measured before and after phosphorylation on the chip by Src kinase; Biacore X100
[5] = target: ECD1-nuc with the phosphorylation site on Tyr-54 of nuclease removed, not phosphorylated (human); assay: as above
[6] = target: T3, first extracellular domain of DARC followed by nuclease from Staphylococcus aureus (ECD1-nuc), wild type (Homo sapiens, UniProt Q16570); assay: ELISA; direct: plate coated with wild-type ECD1-nuc (0.1 μg per well), 2C3 Fab diluted in TBS, 1 h at room temperature; detected with anti-Fab antiserum conjugated with alkaline phosphatase; triplicates; conditions: both partners purified
T3 construct: Duffy Antigen Receptor for Chemokines (DARC, ACKR1), first extracellular domain (ECD1); also called WT ECD1-nuc; consensus ECD1; source: E. coli BL21, purified (Capto-S ion exchange, reversed-phase chromatography); not shown: nuclease from Staphylococcus aureus, C-terminal, kept

[7] = target: T3, first extracellular domain of DARC …; assay: SPR; 2C3 MAb or 2C3 Fab immobilised by amine coupling (about 400 RU), anti-Kx2 antibody in the reference cell; ECD1-nuc as analyte at 5 concentrations; association 100 sec, dissociation 600 sec; Biacore X100, CM5, HBS-EP; 1:1 Langmuir model; conditions: both partners purified
[8] = target: T4, full-length DARC with Tyr-30 replaced by Ala, on K562 cells (Homo sapiens, UniProt Q16570, Y30A (printed as the sequence FEDVWNSSA)); assay: flow cytometry on cells; about 10^6 transfected K562 cells incubated 1 hour with 2C3 MAb culture supernatant in PBS-0.2% BSA, PE-conjugated secondary antibody; read-out is the ratio of % cells positive with 2C3 MAb to % positive with the anti-Fy^a antibody; cells with mean fluorescence above 10^2 counted as positive; conditions: partners not purified
T4 construct: DARC (ACKR1), full length, mutant; source: K562 cells, transfected, on cells

[9] = target: T5, full-length DARC with Ser-29 and Tyr-30 replaced by Ala, on K562 cells (Homo sapiens (Human)., UniProt Q16570, S29A (printed as the sequence FEDVWNSAA) | Y30A (printed as the sequence …, site N27 is not glycosylated)); assay: as above; conditions: partners not purified
T5 construct: DARC (ACKR1), full length, mutant; source: K562 cells, transfected, on cells

[10] = target: T6, Duffy Antigen Receptor for Chemokines (DARC), full-length consensus, expressed in K562 cells (Homo sapiens, UniProt Q16570, N-linked oligosaccharide chains (as made in K562 cells)); assay: as above; conditions: partners not purified
T6 construct: also called ACKR1; DARC from K562 cells; source: K562 cells, transfected, selected with geneticin: on cells (flow cytometry); purified from the lysate on an immobilised anti-DARC nanobody, eluted with peptide DFEDVW (SPR)

[11] = target: T7, full-length DARC without the glycosylation site at Asn-27 (Ser-29 replaced by Ala), on K562 cells (Homo sapiens, UniProt Q16570, S29A (printed as the sequence FEDVWNSAY), site N27 is not glycosylated); assay: as above; conditions: partners not purified
T7 construct: DARC (ACKR1), full length, mutant; source: K562 cells, transfected, on cells

[12] = target: T8, full-length DARC with Trp-26 replaced by Phe, on K562 cells (Homo sapiens (Human)., UniProt Q16570, W26F (printed as the sequence FEDVFNSSY)); assay: as above; conditions: partners not purified
T8 construct: DARC (ACKR1), full length, mutant; source: K562 cells, transfected, on cells

[13] = target: T9, full-length DARC with Tyr-30 replaced by Glu, on K562 cells (Homo sapiens, UniProt Q16570, Y30E (printed as the sequence FEDVWNSSE)); assay: as above; conditions: partners not purified
T9 construct: DARC (ACKR1), full length, mutant; source: K562 cells, transfected, on cells

[14] = target: T10, synthetic peptide DFEDVWNSSYG (residues 21-31 of ECD1 of DARC) (Homo sapiens); assay: SPR; competition: 2C3 MAb (culture supernatant diluted 40 times) incubated 1 h at room temperature with the synthetic peptides, then injected over 2000 RU of immobilised WT ECD1-nuc (nuclease in the reference cell); RU read at 90 sec; Biacore X100, CM5, HBS-EP; the pair peptide and MAb; conditions: one partner purified
T10 construct: DARC (ACKR1), residues 21-31 of ECD1; also called non-sulfated peptide; source: synthetic peptide; bought: Cambridge Research Biochemicals
T10 chain: DFEDVWNSSYG

B1: synthetic sulfated peptide …(SO3H)G (residues 21-31 of ECD1 of DARC) (peptide)
peptide: DFEDVWNSS[sY]G
B1 was tested, and the IC50 [1] was 252 nM.

B2: 2C3 Fab fragment (Fab, V domains shown)
VH: EVKLVESGGDLVQPGGSLKLSCAASGMTFSSYGMSWVRQTPDKRLELVASINRNGGSTYYPDSVKGRFTISRDNAKNTLYLQMSSLKSEDTAMYFCVRAGDYLSMDYWGQGTSVTVSS
VL: ELVMTQTPLSLPVSLGDQASISCRTSQSLLHSNGNTYLHWYLQKPGQSPKLLIYKVPNRFSGVPDRFSGSGSGTDFTLRITRVEAEDLGVYFCSQSTHVYTFGGGTKLEIK
notes: variable region of the heavy chain, as the VH of m1; CH1 part of the Fab; variable region of the light chain, as the VL of m1; light chain constant domain of the Fab; Cloned by PCR from total RNA of the hybridoma into pComb3H; also called 2C3-derived Fab; source: E. coli (pComb3H vector), purified
Work on B2 yielded a Kd [2] of 0.263 nM, a koff [2] of 0.000547 s⁻¹ and a kon [2] of 2.08e+06 M⁻¹ s⁻¹. It also gave a Kd [3] of 0.0283 nM, a koff [3] of 0.000276 s⁻¹ and a kon [3] of 9.75e+06 M⁻¹ s⁻¹. The Kd [4] was 0.459 nM, the koff [4] was 0.000777 s⁻¹ and the kon [4] was 1.69e+06 M⁻¹ s⁻¹. The Kd [5] was 14.2 nM, the koff [5] was 0.000766 s⁻¹ and the kon [5] was 53900 M⁻¹ s⁻¹. The “fold lower affinity than 2C3 MAb (ELISA)” value [6] was ~2 fold and the Kd [7] was 93 nM.

B3: murine anti-Fy6 monoclonal antibody 2C3 (clone name NaM185-2C3) (antibody, V domains shown)
VH: EVKLVESGGDLVQPGGSLKLSCAASGMTFSSYGMSWVRQTPDKRLELVASINRNGGSTYYPDSVKGRFTISRDNAKNTLYLQMSSLKSEDTAMYFCVRAGDYLSMDYWGQGTSVTVSS
VL: ELVMTQTPLSLPVSLGDQASISCRTSQSLLHSNGNTYLHWYLQKPGQSPKLLIYKVPNRFSGVPDRFSGSGSGTDFTLRITRVEAEDLGVYFCSQSTHVYTFGGGTKLEIK
notes: variable region of the heavy chain; murine heavy chain constant region; variable region of the light chain; murine light chain constant region; Whole murine antibody; The variable regions were cloned from the hybridoma for the Fab; also called 2C3 MAb; MAb 2C3; source: 2C3-producing hybridoma
B3 was tested, and the “ratio of % cells positive with 2C3 MAb to % cells positive with anti-Fy^a MAb” value (shortened to “ratio of % cells positive with 2C3 MAb”) [8] was 0.75 ± 0.03, the “ratio of % cells positive with 2C3 MAb” value [9] was 0.95 ± 0.03 and the “ratio of % cells positive with 2C3 MAb” value [10] was 0.97 ± 0.07. The “ratio of % cells positive with 2C3 MAb” value [11] was 0.97 ± 0.04, the “ratio of % cells positive with 2C3 MAb” value [12] was 0.19 ± 0.02 and the “ratio of % cells positive with 2C3 MAb” value [13] was 1.16 ± 0.09. The Kd [7] was 1.1 nM and the IC50 [14] was 410 ± 40 nM.
